Assay: soluble on expression in E. coli; label from the status in PepcDB or PDB records

Soluble on expression in E. coli, soluble:
GSHMPNYDTSIDIEDIKKILPHRYPFLLVDKVIYMQPNKTIIGLKQVSTNEPFFNGHFPQKQIMPGVLQIEALAQLAGILCLKSDDSQKNNLFLFAGVDGVRWKKPVLPGDTLTMQANLISFKSSLGIAKLSGVGYVNGKVVINISEMTFALSK
GSHMVLTKKKLQDLVREVDPNEQLDEDVEEMLLQIADDFIESVVTAACQLARHRKSSTLEVKDVQLHLERQWNMWI
GSHSLRYFVTAVSRPGHGKPRYMEVGYVDDTEFVRFDSDAENPRYEPRTPWMEQVEPEYWEGQTQIAKGNEQSSRVDLRTALRYYNQSAGGSHTIQRMRGCEVGSDGRLLRGYQQVAYDGRDYIALNEDLKTWTAADMAALITKHKWEQAGAAERDRAYLEGACVEWLRRYLELGNATLLRTDSPKAHVTHHSRPKDKVTLRCWALGFYPADITLTWQLNGEELTQDMELVETRPAGDGTFQKWASVVVPLGKEQNYTCHVYHEGLPEPLTLRW
GSKAEKTLGDFAAEYAKSNRSTCKGCMEKIEKGQVRLSKKMVDPEKPQLGMIDRWYHPGCFVKNREELGFRPEYSASQLKGFSLLATEDKEALKKQLPGVKSEGKRKGDEVDGVDEVAKKK
GSKEKLKEIKLLVCNIDGCLTNGHIYVSGDQKEIISYDVKDAIGISLLKKSGIEVRLISERACSKQTLSALKLDCKTEVSVSDKLATVDEWRKEMGLCWKEVAYLGNEVSDEECLKRVGLSAVPADACSGAQKAVGYICKCSGGRGAIREFAEHIFLLIEKVNNSCQK
GSMAGGVDGPIGIPFPDHSSDILSGLNEQRTQGLLCDVVILVEGREFPTHRSVLAACSQYFKKLFTSGAVVDQQNVYEIDFVSAEALTALMDFAYTATLTVSTANVGDILSAARLLEIPAVSHVCADLLDRQI
GSMNDRDFMRYSRQILLDDIALDGQQKLLDSQVLIIGLGGLGTPAALYLAGAGVGTLVLADDDDVHLSNLQRQILFTTEDIDRPKSQVSQQRLTQLNPDIQLTALQQRLTGEALKDAVARADVVLDCTDNMATRQEINAACVALNTPLITASAVGFGGQLMVLTPPWEQGCYRCLWPDNQEPERNCRTAGVVGPVVGVMGTLQALEAIKLLSGIETPAGELRLFDGKSSQWRSLALRRASGCPVCGGSNADPV
GSMTEETHPDDDSYIVRVKAVVMTRDDSSGGWFPQEGGGISRVGVCKVMHPEGNGRSGFLIHGERQKDKLVVLECYVRKDLVYTKANPTFHHWKVDNRKFGLTFQSPADARAFDRGVRKAIEDLIE
GSPEFMDDIFTQCREGNAVAVRLWLDNTENDLNQGDDHGFSPLHWACREGRSAVVEMLIMRGARINVMNRGDDTPLHLAASHGHRDIVQKLLQYKADINAVNEHGNVPLHYACFWGQDQVAEDLVANGALVSICNKYGEMPVDKAKAPLRELLRERAEKMGQNLNRIPYKDTFWKGTTR
GSQQGKFDTKGIESTDEAKMSFLVTLNNVEVCSENISTLKKTLESDCTKLFSQGIGGEQAQAKFDSCLSDLAAVSNKFRDLLQEGLTELNSTAIKPQVQPWINSFFSVSHNIEEEEFNDYEANDPWVQQFILNLEQQMAEFKASLSPVIYDSLTGLMTSLVAVELEKVVLKSTFNRLGGLQFDKELRSLIAYLTTVTTWTIRDKFARLSQMATILNLERVTEILDYWGPNSGPLTWRLTPAEVRQVLALRIDFRSEDIKRLRL
GSRVALVTGANRGIGLAIARELCRQFSGDVVLTARDVARGQAAVQQLQAEGLSPRFHQLDIDDLQSIRALRDFLRKEYGGLNVLVNNAAVAFKSDDPMPFDIKAEMTLKTNFFATRNMCNELLPIMKPHGRVVNISSLQCLRAFENCSEDLQERFHSETLTEGDLVDLMKKFVEDTKNEVHEREGWPNSPYGVSKLGVTVLSRILARRLDEKRKADRILVNACCPGPVKTDMDGKDSIRTVEEGAETPVYLALLPPDATEPQGQLVHDKVVQNW
GSSGSSGVSSQETQGGPLAPMTGTIEKVFVKAGDKVKAGDSLMVMIAMKMEHTIKSPKDGTVKKVFYREGAQANRHTPLVEFEEEESDKRESESGPSSG
GTKQKMRTVFSQAQLCALKDRFQKQKYLSLQQMQELSSILNLSYKQVKTWFQNQRMKCKRWQ
